According to article PMC3777949, “Dimerization Mediates Thermo-Adaptation, Substrate Affinity and Transglycosylation in a Highly Thermostable Maltogenic Amylase of Geobacillus thermoleovorans” (PLoS ONE, 2013):

Experiments:
[1] = substrate: OC[C@H]1O[C@@H]2O[C@H]3[C@H](O)[C@@H](O)[C@@H](O[C@H]4[C@H](O)[C@@H](O)[C@@H](O[C@H]5[C@H](O)[C@@H](O)[C@@H](O[C@H]6[C@H](O)[C@@H](O)[C@@H](O[C@H]7[C@H](O)[C@@H](O)[C@@H](O[C@H]8[C@H](O)[C@@H](O)[C@@H](O[C@H]1[C@H](O)[C@H]2O)O[C@@H]8CO)O[C@@H]7CO)O[C@@H]6CO)O[C@@H]5CO)O[C@@H]4CO)O[C@@H]3CO; assay: DNSA reducing-sugar assay; format: biochemical, Geobacillus thermoleovorans; details: 100 mM sodium phosphate pH 7.0, 80°C, dimeric mutant
Description: (§1) DNSA reducing-sugar assay on dimeric Gt-Mamy

[2] = substrate: OC[C@H]1O[C@@H]2O[C@H]3[C@H](O)[C@@H](O)[C@@H](O[C@H]4[C@H](O)[C@@H](O)[C@@H](O[C@H]5[C@H](O)[C@@H](O)[C@@H](O[C@H]6[C@H](O)[C@@H](O)[C@@H](O[C@H]7[C@H](O)[C@@H](O)[C@@H](O[C@H]1[C@H](O)[C@H]2O)O[C@@H]7CO)O[C@@H]6CO)O[C@@H]5CO)O[C@@H]4CO)O[C@@H]3CO; assay: DNSA reducing-sugar assay; format: biochemical, Geobacillus thermoleovorans; details: 100 mM sodium phosphate pH 7.0, 80°C, dimeric mutant
Description: as §1

B1: dimeric Gt-Mamy (Geobacillus thermoleovorans; D109E) (protein)
chain: MRKEAIHHRSTDNFAYAYDSETLHLRLQTKKHDVDHVELLFGDPYEWHDGAWQFQTMPMRKTGSDGLFDYWFAEVKPPYRRLRYGFVLRAGDEKLVYTEKGFYHEAPSEDTAYYFCFPFLHRVDLFQAPDWVKDTVWYQIFPERFANGNPAISPKGARPWGSEDPTPTSFFGGDLQGIIDHLDYLADLGITGIYLTPIFRAPSNHKYDTADYFEIDPHFGDKETLKTLVKRCHEKGIRVMLDAVFNHCGYEFAPFQDVLKNGAASRYKDWFHIREFPLQTEPRPNYDTFAFVPQMPKLNTAHPEVKRYLLDVATYWIREFDIDGWRLDVANEIDHEFWREFRQAVKALKPDVYILGEIWHDAMPWLRGDQFDAVMNYPFTDGALRFFAKEEISARQFADIMVRLLHSYPKHVNEAAFNLLGSHDTPRLLTICGDDVRKAKLLFLFQLTFTGSPCIYYGDEIGMTGGNDPECRKCMVWDPEKQNKELYEHVKQLIALRRQYRALRRGDVAFLAADDEANHLVYEKTDGNETVMIIINRSNEAAEIPMPIDARGKWLVNLLTGERFAAEAETLCVSLPPYGFVLYAVESW
notes: full length 588 aa, pCOLD I (Ni-NTA purified, tag kept), E. coli BL21(DE3); homodimer 145 kDa separated by Sephacryl S-200
- Km [1]: 0.60 mg/mL
- Km [2]: 0.21 mg/mL
